{"source": "paper PMC2783756", "about": "(Biochemistry, 2009)", "molecules": {"B1": {"name": "Y42H allele of human medium-chain acyl-CoA dehydrogenase: Y42H allele of human medium-chain acyl-CoA dehydrogenase (protein, UniProt P11310 26-421, looked up, variant Y42H)", "Medium-chain specific …": "KANRQREPGLGFSFEFTEQQKEFQATARKFAREEIIPVAAEHDKTGEYPVPLIRRAWELGLMNTHIPENCGGLGLGTFDACLISEELAYGCTGVQTAIEGNSLGQMPIIIAGNDQQKKKYLGRMTEEPLMCAYCVTEPGAGSDVAGIKTKAEKKGDEYIINGQKMWITNGGKANWYFLLARSDPDPKAPANKAFTGFIVEADTPGIQIGRKELNMGQRCSDTRGIVFEDVKVPKENVLIGDGAGFKVAMGAFDKTRPVVAAGAVGLAQRALDEATKYALERKTFGKLLVEHQAISFMLAEMAMKVELARMSYQRAAWEVDSGRRNTYYASIAKAFAGDIANQLATDAVQILGGNGFNTEYPVEKLMRDAKIYQIYEGTSQIQRLIVAREHIDKYKN"}, "B2": {"name": "114–184: NKX3.1 homeodomain construct, recombinant with N-terminal hexahistidine sequence (protein, UniProt Q99801 114-184, looked up, fragment)", "chain": "PRLPQTPKQPQKRSRAAFSHTQVIELERKFSHQKYLSAPERAHLAKNLKLTETQVKIWFQNRRYKTKRKQL", "modifications": "N-terminal His6 tag"}, "B3": {"name": "1–184: NKX3.1 (1–184) construct, recombinant with N-terminal hexahistidine sequence (protein, UniProt Q99801 1-184, looked up, fragment)", "chain": "MLRVPEPRPGEAKAEGAAPPTPSKPLTSFLIQDILRDGAQRQGGRTSSQRQRDPEPEPEPEPEGGRSRAGAQNDQLSTGPRAAPEEAETLAETEPERHLGSYLLDSENTSGALPRLPQTPKQPQKRSRAAFSHTQVIELERKFSHQKYLSAPERAHLAKNLKLTETQVKIWFQNRRYKTKRKQL", "modifications": "N-terminal His6 tag"}}, "key": {"[1]": {"system": "medium-chain acyl-CoA dehydrogenase", "conditions": "activity drops significantly for changes in temperature as small as 3 °C; ref [21]; cited from earlier work"}, "[2]": {"system": "NKX3.1 homeodomain", "assay": "CD thermal unfolding of NKX3.1 constructs", "type": "physicochemical", "conditions": "with and without His tag sequence; within error (±1 °C)"}, "[3]": {"system": "DNA", "conditions": "previously observed for N-terminal construct; ref [6]; cited from earlier work"}}, "data": [{"molecule": "B1", "values": [{"measurement": "Thermal stability and activity", "setting": "[1]", "value": "lower thermal stability"}]}, {"molecule": "B2", "values": [{"measurement": "Effect of His tag on unfolding transition temperature", "setting": "[2]", "value": "the same unfolding transition temperature within error"}]}, {"molecule": "B3", "values": [{"measurement": "DNA binding", "setting": "[3]", "value": "weaker DNA binding"}]}]}
